B1: MBP-CUB1CUB2 domains of PCPE-2, WT [human] / bone morphogenetic protein-1 [human] (parent complex)
chain 1: QSPERPVFTCGGILTGESGFIGSEGFPGVYPPNSKCTWKITVPEGKVVVLNFRFIDLESDNLCRYDFVDVYNGHANGQRIGRFCGTFRPGALVSSGNKMMVQMISDANTAGNGFMAMFSAAEPNERGDQYCGGLLDRPSGSFKTPNWPDRDYPAGVTCVWHIVAPKNQLIELKFEKFDVERDNYCRYDYVAVFNGGEVNDARRIGKYCGDSPPAPIVSERNELLIQFLSDLSLTADGFIGHYIFRPK
chain 2: AATSRPERVWPDGVIPFVIGGNFTGSQRAVFRQAMRHWEKHTCVTFLERTDEDSYIVFTYRPCGCCSYVGRRGGGPQAISIGKNCDKFGIVVHELGHVVGFWHEHTRPDRDRHVSIVRENIQPGQEYNFLKMEPQEVESLGETYDFDSIMHYARNTFSRGIFLDTIVPKYEVNGVKPPIGQRTRLSKGDIAQARKLYKCPACGETLQDSTGNFSSPEYPNGYSAHMHCVWRISVTPGEKIILNFTSLDLYRSRLCWYDYVEVRDGFWRKAPLRGRFCGSKLPEPIVSTDSRLWVEFRSSSNWVGKGFFAVYEAICGGDVKKDYGHIQSPNYPDDYRPSKVCIWRIQVSEGFHVGLTFQSFEIERHDSCAYDYLEVRDGHSESSTLIGRYCGYEKPDDIKSTSSRLWLKFVSDGSINKAGFAVNFFKEVDECSRPNRGGCEQRCLNTLGSYKCSCDPGYELAPDKRRCEAACGGFLTKLNGSITSPGWPKEYPPNKNCIWQLVAPTQYRISLQFDFFETEGNDVCKYDFVEVRSGLTADSKLHGKFCGSEKPEVITSQYNNMRVEFKSDNTVSKKGFKAHFFSEKRPALQPPRGRPHQLKFRVQKRNRTPQ

Variants of: B1
Assay: SPR; 50 nM MBP-CUB1CUB2; immobilized BMP-1 (1302 and 1492 RU); parent: 100; read off a plot

percent of parent [% binding / WT] | Variant
~90 | chain 1 R150A
~84 | chain 1 F87A
